Substrate: [N-]=[N+]=NCCCCCCCC(=O)O
Experiment: Measurement of LplA-probe ligation kinetics (HPLC)
Type: biochemical, E. coli
Settings: other: ligation to E2p, 200 nM LplA; pH 7.0; 30.0 °C
Procedure: To measure the kcat for LplA ligation of lipoic acid to E2p, 50 nM LplA was combined with 200 μM E2p, 750 μM lipoic acid, […], and 2 mM magnesium acetate in 25 mM sodium phosphate pH 7.0. The reaction was initiated with addition of 1 mM ATP to the pre-warmed (30° C.) mixture. The reaction was incubated at 30° C., and 90 μL aliquots were removed every 5 minutes and quenched with 50 mM EDTA (final concentration). Samples were analyzed by C18 reverse-phase HPLC as described in the “Methods” section. Measurements were performed in triplicate. A calibration curve was obtained that correlated the ratio of integrated HPLC peak areas (E2p:E2p-probe) to the actual protein ratio, in order to compensate for differences in the extinction coefficients of E2p and lipoylated E2p. The amount of product obtained at each time point was plotted against time, to obtain the Vmax of the reaction. From this, the kcat value was obtained using the equation Vmax=kcat [E]total.
90 μL aliquots were removed from the 30° C. reactions at 5 minutes intervals, up to 30 minutes, and quenched with 50 mM EDTA (final concentration). Samples were analyzed by HPLC as above. The amount of product obtained at each time point was plotted against time, to obtain the initial velocity for each concentration of azide 7. […] From the Vmax value, kcat was calculated using the equation Vmax=kcat [E]total.

B1: E. coli LplA (Escherichia coli K-12) (protein)
chain: STLRLLISDSYDPWFNLAVEECIFRQMPATQRVLFLWRNADTVVIGRAQNPWKECNTRRMEEDNVRLARRSSGGGAVFHDLGNTCFTFMAGKPEYDKTISTSIVLNALNALGVSAEASGRNDLVVKTVEGDRKVSGSAYRETKDRGFHHGTLLLNADLSRLANYLNPDKKKLAAKGITSVRSRVTNLTELLPGITHEQVCEAITEAFFAHYGERVEAEIISPNKTPDLPNFAETFARQSSWEWNFGQAPAFSHLLDERFTWGGVELHFDVEKGHITRAQVFTDSLNPAPLEALAGRLQGCLYRADMLQQECEALLVDFPEQEKELRELSAWMAGAVR
Protein B1 has a Km of 127 ± 11 µM.

— patent US9284541B2, “Methods and compositions for protein labeling using lipoic acid ligases” (Massachusetts Institute of Technology, priority 2007, dated 2016)
